# What was measured:
# [1] = biological target: integrin α5 β1 on CHO cells (hamster); assay: binding of soluble 125I-Fn to CHO cells
# [2] = biological target: integrin α5 β1 on CHO cells (hamster); assay: 125I-Fn binding to CHO cells washed free of NaN3 and 2-deoxyglucose
substance,measurement,setting,value
fibronectin (from UniProt P02751) (ligand),Kd,[1],0.1 µM
same,percent of the high affinity binding restored after washout of the metabolic inhibitors,[2],75%

# Source: patent publication US5523209
